{
  "source": "paper PMC12052844",
  "about": "(iScience, 2025)",
  "key": {"[1]": {"molecular_target": "EphA4 receptor on cells (UniProt Q03137)", "sequence (Q03137 20-986)": "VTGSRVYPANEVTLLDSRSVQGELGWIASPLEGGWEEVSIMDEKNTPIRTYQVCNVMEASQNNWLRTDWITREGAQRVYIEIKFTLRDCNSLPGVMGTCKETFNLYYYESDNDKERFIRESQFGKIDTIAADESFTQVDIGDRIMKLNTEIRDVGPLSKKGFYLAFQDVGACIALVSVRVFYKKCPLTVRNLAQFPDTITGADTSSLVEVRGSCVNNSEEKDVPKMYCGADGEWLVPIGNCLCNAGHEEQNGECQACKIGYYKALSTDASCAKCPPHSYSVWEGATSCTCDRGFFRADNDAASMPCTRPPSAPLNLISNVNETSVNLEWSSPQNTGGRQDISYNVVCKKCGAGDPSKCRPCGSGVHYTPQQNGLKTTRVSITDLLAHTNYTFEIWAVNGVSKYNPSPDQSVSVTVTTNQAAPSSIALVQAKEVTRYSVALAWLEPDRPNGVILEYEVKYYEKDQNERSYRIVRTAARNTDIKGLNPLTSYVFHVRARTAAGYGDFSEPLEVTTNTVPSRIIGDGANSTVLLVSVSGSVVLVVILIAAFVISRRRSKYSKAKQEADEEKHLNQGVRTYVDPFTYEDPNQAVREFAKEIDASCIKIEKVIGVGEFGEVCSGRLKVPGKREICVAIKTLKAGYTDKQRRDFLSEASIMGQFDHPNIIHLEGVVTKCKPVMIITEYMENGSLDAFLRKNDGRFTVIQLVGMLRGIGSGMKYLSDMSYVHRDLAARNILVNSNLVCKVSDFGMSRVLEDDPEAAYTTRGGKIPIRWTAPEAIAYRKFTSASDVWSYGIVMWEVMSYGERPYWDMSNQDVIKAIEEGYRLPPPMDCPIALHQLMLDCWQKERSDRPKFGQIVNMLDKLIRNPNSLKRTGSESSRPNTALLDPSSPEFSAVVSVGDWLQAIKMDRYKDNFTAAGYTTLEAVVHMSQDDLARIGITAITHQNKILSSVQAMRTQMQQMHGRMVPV", "test": "flow cytometry on cells"}, "[2]": {"molecular_target": "T1, full-length wild-type EphB2 on the surface of Expi293F cells (mouse, UniProt P54763-3)", "T1 sequence": "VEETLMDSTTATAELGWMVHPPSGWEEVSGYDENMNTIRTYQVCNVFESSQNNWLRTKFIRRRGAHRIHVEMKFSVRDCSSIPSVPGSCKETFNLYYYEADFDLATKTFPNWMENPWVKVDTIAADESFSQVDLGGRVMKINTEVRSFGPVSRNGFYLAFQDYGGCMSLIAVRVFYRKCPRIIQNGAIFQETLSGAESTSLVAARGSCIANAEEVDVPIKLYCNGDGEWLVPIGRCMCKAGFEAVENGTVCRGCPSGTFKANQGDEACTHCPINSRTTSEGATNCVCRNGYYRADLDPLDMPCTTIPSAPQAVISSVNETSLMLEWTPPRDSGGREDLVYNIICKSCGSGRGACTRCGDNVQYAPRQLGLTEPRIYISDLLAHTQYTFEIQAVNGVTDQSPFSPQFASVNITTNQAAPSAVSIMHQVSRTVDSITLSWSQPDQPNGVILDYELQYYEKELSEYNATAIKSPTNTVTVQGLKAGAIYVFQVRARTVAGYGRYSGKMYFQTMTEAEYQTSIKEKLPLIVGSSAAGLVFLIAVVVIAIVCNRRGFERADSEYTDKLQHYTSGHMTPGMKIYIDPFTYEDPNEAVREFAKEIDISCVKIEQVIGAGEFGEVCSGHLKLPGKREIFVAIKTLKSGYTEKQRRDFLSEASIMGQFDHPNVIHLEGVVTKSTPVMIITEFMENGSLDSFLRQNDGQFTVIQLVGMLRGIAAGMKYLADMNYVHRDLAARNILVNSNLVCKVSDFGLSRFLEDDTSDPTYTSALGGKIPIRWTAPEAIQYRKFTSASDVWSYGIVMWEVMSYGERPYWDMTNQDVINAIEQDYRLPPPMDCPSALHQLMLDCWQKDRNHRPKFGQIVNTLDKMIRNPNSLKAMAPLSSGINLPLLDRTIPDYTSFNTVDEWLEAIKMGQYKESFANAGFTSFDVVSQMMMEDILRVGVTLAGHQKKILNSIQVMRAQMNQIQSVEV", "test": "flow cytometry on cells"}},
  "data": [
    {"molecule": "pre-clustered ephrin-B2 (receptor binding domain of murine ephrin-B2, residues 30-170, biotinylated) (from UniProt P52800 30-170) (ligand)", "values": [
      {"measurement": "Kd", "setting": "[1]", "value": 501, "unit": "nM"}
    ]},
    {"molecule": "pre-clustered ephrin-A5 (receptor binding domain of murine ephrin-A5, residues 28-164, biotinylated) (ligand, biotin on the Avi tag (BirA)) VADRYAVYWNSSNPRFQRGDYHIDVCINDYLDVFCPHYEDSVPEDKTERYVLYMVNFDGYSACDHTSKGFKRWECNRPHSPNGPLKFSEKFQLFTPFSLGFEFRPGREYFYISSAIPDNGRRSCLKLKVFVRPTNSC", "values": [
      {"measurement": "Kd", "setting": "[2]", "value": 112, "unit": "nM"}
    ]},
    {"molecule": "pre-clustered ephrin-B2 (receptor binding domain of murine ephrin-B2, residues 30-170, biotinylated) (ligand, biotin on the Avi tag (BirA)) SIVLEPIYWNSSNSKFLPGQGLVLYPQIGDKLDIICPKVDSKTVGQYEYYKVYMVDKDQADRCTIKKENTPLLNCARPDQDVKFTIKFQEFSPNLWGLEFQKNKDYYIISTSNGSLEGLDNQEGGVCQTRAMKILMKVGQD", "values": [
      {"measurement": "Kd", "setting": "[2]", "value": 3.53, "unit": "nM"}
    ]},
    {"molecule": "ephrin-B1 (ligand) ATPLAKNLEPVSWSSLNPKFLSGKGLVIYPKIGDKLDIICPRAEAGRPYEYYKLYLVRPEQAAACSTVLDPNVLVTCNKPHQEIRFTIKFQEFSPNYMGLEFKKYHDYYITSTSNGSLEGLENREGGVCRTRTMKIVMKVGQDPNAVTPEQLTTSRPSKESDNTVKTATQAPGRGSQGDSDGKHETVNQEEKSGPGAGGGGSGDSDSFFNSK", "values": [
      {"measurement": "Kd", "setting": "[2]", "value": 6.64, "unit": "nM"}
    ]}
  ]
}
